Source: patent US20150173367

Tested on: RepN (N-terminal 191 residues of TYLCV Rep) (Tomato yellow leaf curl virus)
Experiment: EMSA
Details: 10 mM Tris-HCl, 100 mM NaCl, 5 mM MgCl2, 0.1 mM ZnCl2, pH 7.5, on ice

Work on “TYLCV replication origin DNA containing Rep-binding direct repeats” yielded a Kd of 30 nM.
